No end group written: not given here. *: point of attachment. Biotin = O=C1N[C@H]2[C@H](CS[C@H]2CCCCC(=O)*)N1
Experiments:
asyn_113-127_126A = target: T1, asyn_113-127_126A (human); assay: Ala-scan peptide ELISA, row G, run 2
T1 construct: substitution is already in the entry; also called pep16
T1 peptide: Biotin-LEDMPVDPDNEAYAM
Description: (§1) 96-well Nunc plates were coated with 50 μL per well of 1 μg/mL streptavidin (from Jackson Immuno Research Laboratory) in PBS at 4° C. overnight. The plates were washed three times with PBST, and blocked with PBS containing 3% BSA at room temperature for 1 hour. The N-terminal biotinylated peptides were dissolved in Milli Q water to a concentration of 2 mg/mL, then further diluted to a concentration of 2 μg/mL with PBS. 50 μl of the diluted peptide was applied to the streptavidin-coated plates and incubated at 4° C. overnight. 2 μg/mL of biotinylated human alpha-synuclein was used as the positive control. The plates were washed three times with PBST before use. Purified antibody was diluted by serial dilution methods, from 20 μg/mL to 1 ng/mL, and 50 μL of the antibody solution was added to the peptide-coated wells. The plates were incubated for 1 hour at room temperature, then washed three times with PBST. Secondary detection antibody (goat anti-rat HRP (obtained from Southern Biotech)) was added with 1:5,000 dilutions and incubated for 1 hour at room temperature, then washed three times with PBST. Plates were developed with 50 μL/well of TMB substrate (Thermo Fisher) and quenched with 50 μL/well of 1 N sulfuric acid. The signal was quantified on a BioTek® plate reader at A450. A parallel repeat was performed for each peptide in a separate plate.

asyn_113-127_116A [1] = target: T2, asyn_113-127_116A (human); assay: Ala-scan peptide ELISA, row G, run 2
T2 construct: substitution is already in the entry; also called pep5
T2 peptide: Biotin-LEDAPVDPDNEAYEM
Description: as §1

asyn_113-127_118A [2] = target: T3, asyn_113-127_118A (human); assay: Ala-scan peptide ELISA, row G, run 2
T3 construct: substitution is already in the entry; also called pep7
T3 peptide: Biotin-LEDMPADPDNEAYEM
Description: as §1

asyn_113-127_124P [3] = target: T4, asyn_113-127_124P (human); assay: Ala-scan peptide ELISA, row G, run 2
T4 construct: substitution is already in the entry; also called pep14
T4 peptide: Biotin-LEDMPVDPDNEPYEM
Description: as §1

asyn_113-127_123A [4] = target: T5, asyn_113-127_123A (human); assay: Ala-scan peptide ELISA, row G, run 2
T5 construct: substitution is already in the entry; also called pep12
T5 peptide: Biotin-LEDMPVDPDNAAYEM
Description: as §1

asyn_113-127_113A [5] = target: T6, asyn_113-127_113A (human); assay: Ala-scan peptide ELISA, row G, run 2
T6 construct: substitution is already in the entry; also called pep2
T6 peptide: Biotin-AEDMPVDPDNEAYEM
Description: as §1

asyn_113-127_119A = target: T7, asyn_113-127_119A (human); assay: Ala-scan peptide ELISA, row G, run 2
T7 construct: substitution is already in the entry; also called pep8
T7 peptide: Biotin-LEDMPVAPDNEAYEM
Description: as §1

asyn_113-127_127A = target: T8, asyn_113-127_127A (human); assay: Ala-scan peptide ELISA, row G, run 2
T8 construct: substitution is already in the entry; also called pep17
T8 peptide: Biotin-LEDMPVDPDNEAYEA
Description: as §1

asyn_113-127_117A [6] = target: T9, asyn_113-127_117A (human); assay: Ala-scan peptide ELISA, row G, run 2
T9 construct: substitution is already in the entry; also called pep6
T9 peptide: Biotin-LEDMAVDPDNEAYEM
Description: as §1

asyn_113-127_120A [7] = target: T10, asyn_113-127_120A (human); assay: Ala-scan peptide ELISA, row G, run 2
T10 construct: substitution is already in the entry; also called pep9
T10 peptide: Biotin-LEDMPVDADNEAYEM
Description: as §1

asyn_113-127_122A [8] = target: T11, asyn_113-127_122A (human); assay: Ala-scan peptide ELISA, row G, run 2
T11 construct: substitution is already in the entry; also called pep11
T11 peptide: Biotin-LEDMPVDPDAEAYEM
Description: as §1

asyn_113-127_121A [9] = target: T12, asyn_113-127_121A (human); assay: Ala-scan peptide ELISA, row G, run 2
T12 construct: substitution is already in the entry; also called pep10
T12 peptide: Biotin-LEDMPVDPANEAYEM
Description: as §1

asyn_113-127_124G = target: T13, asyn_113-127_124G (human); assay: Ala-scan peptide ELISA, row G, run 2
T13 construct: substitution is already in the entry; also called pep13
T13 peptide: Biotin-LEDMPVDPDNEGYEM
Description: as §1

[10] = target: T14, human alpha-synuclein monomer (human, UniProt P37840 1-140); assay: ELISA, coated human alpha-synuclein
mouse alpha-synuclein = mouse alpha-synuclein (mouse, UniProt O55042 1-140); assay: direct ELISA on coated antigen; Table 6 titration ELISA, mouse aSyn; Bmax 0.1 (weak binding)
Description: 96-well Nunc plates were coated with 50 μL of recombinant human, mouse, or rat alpha-synuclein at a concentration of 1 μg/mL in PBS at 4° C. overnight. The plates were then washed three times with PBST and blocked with PBS containing 3% BSA at room temperature for 1 hour. Purified antibody was diluted by serial dilution methods, from 10 μg/mL to 0.6 ng/mL, and 50 μL of the antibody solution was added to the alpha-synuclein-coated wells. The plates were incubated for 1 hour at room temperature, then washed three times with PBST. Secondary detection antibody (goat anti-rat HRP (obtained from Southern Biotech)) was added 50 μL/well, 1:5,000 diluted in BSA-PBS solution. Plates were incubated for 1 hour at room temperature, then washed three times with PBST. Plates were subsequently developed with 50 μL/well of TMB substrate (Thermo Fisher) and quenched with 50 μL/well of 1 N sulfuric acid. The signal was quantified on a BioTek® plate reader at A450.

[11] = target: T14, human alpha-synuclein monomer; assay: ELISA, plate coated with the peptide or protein, antibody titrated, anti-rat HRP, A450
Description: (§2) 96-well Nunc plates were coated with 1 pg/mL of the indicated synthetic peptide in PBS 50 μL/well overnight. The plates were washed three times with PBST, then blocked with 150 μL of 3% BSA in PBS for 1 hour. Purified antibody was diluted by serial dilution methods, from 10 pg/mL to 0.6 ng/ml, and 50 μL of the antibody solution was added to the peptide-coated wells. The plates were incubated for 1 hour at room temperature, then washed three times with PBST. Secondary detection antibody, goat anti-rat HRP (obtained from Southern Biotech) 1:5,000 diluted in BSA-PBS, was added to a concentration of 50 μL/well. Plates were incubated for one hour and washed three times with PBST. Plates were then developed with 50 μL/well of TMB substrate (obtained from Thermo Fisher) and quenched with 50 μL/well of 1 N sulfuric acid. The signal was quantified on a BioTek® plate reader at A450.

[12] = target: T15, alpha-synuclein peptide 1-61 (human); assay: as above
T15 construct: synthetic peptide coated on plate
Description: as §2

[13] = target: T16, alpha-synuclein peptide 95-140 (human); assay: as above
T16 construct: synthetic peptide coated on plate
Description: as §2

[14] = target: T17, alpha-synuclein peptide 1-95 (human); assay: as above
T17 construct: synthetic peptide coated on plate
Description: as §2

[15] = target: alpha-synuclein peptide 1-112 (human); assay: as above
Description: as §2

asyn_113-127_125A = target: T18, asyn_113-127_125A (human); assay: Ala-scan peptide ELISA, row D, run 2
T18 construct: substitution is already in the entry; also called pep15
T18 peptide: Biotin-LEDMPVDPDNEAAEM
Description: as §1

[16] = target: biotinylated human alpha-synuclein (human, UniProt P37840 1-140); assay: Ala-scan peptide ELISA, row D, run 2
Description: as §1

asyn_113-127_116A [17] = target: T2, asyn_113-127_116A; assay: Ala-scan peptide ELISA, row D, run 2
Description: as §1

asyn_113-127_118A [18] = target: T3, asyn_113-127_118A; assay: Ala-scan peptide ELISA, row D, run 2
Description: as §1

asyn_113-127_124P [19] = target: T4, asyn_113-127_124P; assay: Ala-scan peptide ELISA, row D, run 2
Description: as §1

asyn_113-127_115A = target: T19, asyn_113-127_115A (human); assay: Ala-scan peptide ELISA, row D, run 2
T19 construct: substitution is already in the entry; also called pep4
T19 peptide: Biotin-LEAMPVDPDNEAYEM
Description: as §1

asyn_113-127_123A [20] = target: T5, asyn_113-127_123A; assay: Ala-scan peptide ELISA, row D, run 2
Description: as §1

asyn_113-127_113A [21] = target: T6, asyn_113-127_113A; assay: Ala-scan peptide ELISA, row D, run 2
Description: as §1

asyn_113-127_117A [22] = target: T9, asyn_113-127_117A; assay: Ala-scan peptide ELISA, row D, run 2
Description: as §1

asyn_113-127_120A [23] = target: T10, asyn_113-127_120A; assay: Ala-scan peptide ELISA, row D, run 2
Description: as §1

asyn_113-127_122A [24] = target: T11, asyn_113-127_122A; assay: Ala-scan peptide ELISA, row D, run 2
Description: as §1

asyn_113-127_121A [25] = target: T12, asyn_113-127_121A; assay: Ala-scan peptide ELISA, row D, run 2
Description: as §1

asyn_113-127_114A = target: T20, asyn_113-127_114A (human); assay: Ala-scan peptide ELISA, row D, run 2
T20 construct: substitution is already in the entry; also called pep3
T20 peptide: Biotin-LADMPVDPDNEAYEM
Description: as §1

B1: 20H4 (antibody, rat IgG2b, V domains shown)
VH: AVQLVESGGGLVQPKESLKISCAASGFTFSNAAMYWVRQAPGKGLELLARIRTKPNNYATYHADSVKGRFTISRDDSQSMVYLHMGNLKTEDTAMYYCTADMATGDYWGPGVMVTVSS
VL: DIQMTQSPPVLSVSVGDRVTLSCKASQNINKNLDWYQQKHGEAPKPLIYSTNNLQTGVPSRFSGSGSGTDYTLTISSLQPEDVATYYCYQYKSAWTFGGGTKLELR
notes: also called clone 20H4; rat 20H4
Q: Which results are given for B1?
A: A450 (asyn_113-127_126A): 0.101 OD; A450 (asyn_113-127_116A [1]): 0.101 OD; A450 (asyn_113-127_118A [2]): 0.109 OD; A450 (asyn_113-127_124P [3]): 0.048 OD; A450 (asyn_113-127_123A [4]): 0.103 OD; A450 (asyn_113-127_113A [5]): 0.095 OD; A450 (asyn_113-127_119A): 0.05 OD; A450 (asyn_113-127_127A): 0.092 OD; A450 (asyn_113-127_117A [6]): 0.108 OD; A450 (asyn_113-127_120A [7]): 0.072 OD; A450 (asyn_113-127_122A [8]): 0.048 OD; A450 (asyn_113-127_121A [9]): 0.097 OD; A450 (asyn_113-127_124G): 0.095 OD; antibody concentration at which ELISA is positive [10]: < 40 ng/mL; EC50 (mouse alpha-synuclein): 4.3 nM; EC50 (read off the curve) [11]: ~0.2 µg/mL; binding result [12]: no binding (tested: 10 µg/ml (1 on the log axis)); EC50 (read off the curve) [13]: ~0.3 µg/mL; binding result [14]: no binding (tested: 10 µg/ml (1 on the log axis)); binding result [15]: no binding (tested: 10 µg/ml (1 on the log axis)); A450 (asyn_113-127_125A): 0.05 OD; A450 [16]: 0.767 OD; A450 (asyn_113-127_116A [17]): 0.366 OD; A450 (asyn_113-127_118A [18]): 0.357 OD; A450 (asyn_113-127_124P [19]): 0.05 OD; A450 (asyn_113-127_115A): 0.266 OD; A450 (asyn_113-127_123A [20]): 0.321 OD; A450 (asyn_113-127_113A [21]): 0.339 OD; A450 (asyn_113-127_117A [22]): 0.405 OD; A450 (asyn_113-127_120A [23]): 0.18 OD; A450 (asyn_113-127_122A [24]): 0.051 OD; A450 (asyn_113-127_121A [25]): 0.335 OD; A450 (asyn_113-127_114A): 0.348 OD

Reference: US20230074436A1 (DENALI THERAPEUTICS, published 2023)
